Measurements taken from patent US20110230643A1.

Target: Toll-like receptor 5 (TLR5), constitutively expressed on Caco-2 cells (UniProt O60602)
Assay: cell-based or functional assay

Chain of UniProt O60602 (O60602 21-858 limits assumed): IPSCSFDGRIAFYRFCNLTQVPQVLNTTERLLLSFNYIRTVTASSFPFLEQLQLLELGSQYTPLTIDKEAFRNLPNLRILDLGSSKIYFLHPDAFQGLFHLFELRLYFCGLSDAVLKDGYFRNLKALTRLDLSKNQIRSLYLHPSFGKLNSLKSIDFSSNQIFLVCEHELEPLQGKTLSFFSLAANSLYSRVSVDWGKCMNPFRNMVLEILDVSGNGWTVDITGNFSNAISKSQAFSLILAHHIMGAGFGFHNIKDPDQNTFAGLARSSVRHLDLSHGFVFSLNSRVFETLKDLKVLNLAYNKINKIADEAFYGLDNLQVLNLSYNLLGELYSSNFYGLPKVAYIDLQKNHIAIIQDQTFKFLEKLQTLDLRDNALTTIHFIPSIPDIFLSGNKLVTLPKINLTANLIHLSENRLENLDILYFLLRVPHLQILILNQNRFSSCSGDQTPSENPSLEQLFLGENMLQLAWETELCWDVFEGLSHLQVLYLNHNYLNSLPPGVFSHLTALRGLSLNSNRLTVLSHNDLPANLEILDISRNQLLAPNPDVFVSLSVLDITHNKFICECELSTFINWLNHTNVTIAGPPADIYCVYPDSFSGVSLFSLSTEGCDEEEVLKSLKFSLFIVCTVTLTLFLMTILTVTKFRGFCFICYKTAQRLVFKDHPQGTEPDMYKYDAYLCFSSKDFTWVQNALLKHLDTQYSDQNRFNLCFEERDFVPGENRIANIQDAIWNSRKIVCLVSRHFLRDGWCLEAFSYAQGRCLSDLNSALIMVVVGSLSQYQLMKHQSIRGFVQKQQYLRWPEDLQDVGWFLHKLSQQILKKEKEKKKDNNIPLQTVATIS

In the case of “flagellin protein FliC from Salmonella enterica J341, recombinant, with C-terminal 6-histidine tag (from UniProt P06177 1-505) (ligand)”, the dose at which the stimulating activity (IL-8 and MCP-1 release of Caco-2 cells) reached saturation is reported as greater than 1000 ng/mL.
